{
  "source": "patent US20250066745A1",
  "about": "“MUTANTS AND USE THEREOF” (BGI SHENZHEN, priority 2021, published 2025)",
  "type_in_all_cases": "biochemical",
  "parameters_in_all_cases": "key to Activity of mutant relative to wild-type Gaussia luciferase without the signal peptide: ratio of mutant luminescence intensity to wild-type Gaussia luciferase",
  "key": {"[1]": {"assay": "Luminescence activity assay of purified Gaussia luciferase mutants on coelenterazine", "conditions": "Substrate CTZ (Table 16)", "procedure,_shortened": "(§1)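 Readout: luminescence intensity, as ratio to signal-peptide-free wild-type enzyme. Enzyme 1 μg/mL, substrate 100 μM stock, 10 μL + 90 μL; buffer 50 mM Tris-HCl pH 8.0, 100 mM NaCl, 0.1% Tween-20.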"}, "[2]": {"assay": "Luminescence activity assay of purified Gaussia luciferase mutants on fluoro-coelenterazine", "conditions": "Substrate f-CTZ (Table 16)", "description": "In this Example, the protein concentration was determined with a BCA quantitative kit (Thermo Scientific™ Pierce™ BCA Protein Assay Kit) accurately. The purified luciferase obtained in Example 5 was diluted with diluent (50 mM Tris-HCl, pH 8.0, 100 mM NaCl, 0.1% (v/v) Tween-20) to 1 μg/mL. The diluted luciferase, taken for 10 μL, was moved into a black 96-well plate, then added with 90 μL of the substrates coelenterazine, fluoro-coelenterazine or coelenterazine derivative ZS2 (purchased from Biolab) which was diluted into 100 μM with the same diluent, and the luminescence intensity of the plate was read with a self-luminescence module of a microplate reader. The mutation site of the mutant, the measured luminescence intensity, the ratio of luminescence intensities of the advantageous mutants to the wild-type Gaussia luciferase without the signal peptide having the sequence shown in SEQ ID NO: 3 are shown in Table 15. The results of catalytic activity assay of the advantageous mutants relative to the wild-type Gaussia luciferase without the signal peptide having the sequence shown in SEQ ID NO: 3 on substrate coelenterazine are shown in FIG. 6. […] The results of catalytic activity assay of the advantageous mutants relative to the wild-type Gaussia luciferase without the signal peptide having the sequence shown in SEQ ID NO: 3 on substrate fluoro-coelenterazine are shown in FIG. 7.\nThe new mutant library constructed in Example 7 was screened and tested for substrate specificity. Expression and purification schemes were the same as that in Example 5, and the activity assay scheme was the same as that in Example 6. The respective catalytic activities of combinatorial mutants on coelenterazine, fluoro-coelenterazine or coelenterazine derivative ZS2, and coelenterazine derivative ZS26 (purchased from BIOLAB) were assayed, and comparisons among the substrate specificities of the combinatorial mutants were based on the ratios of catalytic activities on two corresponding substrates."}, "[3]": {"assay": "Luminescence activity assay of purified Gaussia luciferase mutants on coelenterazine derivative ZS2", "conditions": "Substrate ZS2 (Table 16)", "procedure,_shortened": "as §1"}},
  "data": [
    {"molecule": "A42G Q152C T167G S170T G174N K178S A182Y G183A: Gaussia luciferase mutant (protein, SIGNAL (1)..(17), Gaussia luciferase mutant) MGVKVLFALICIAVAEAKPTENNEDFNIVAVASNFATTDLDGDRGKLPGKKLPLEVLKEMEANARKAGCTRGCLICLSHIKCTPKMKKFIPGRCHTYEGDKESAQGGIGEAIVDIPEIPGFKDLEPMEQFIAQVDLCVDCTTGCLKGLANVCCSDLLKKWLPQRCAGFATKIQNQVDSIKGYAGD", "values": [
      {"measurement": "Activity of mutant relative to wild-type Gaussia luciferase without the signal peptide", "setting": "[1]", "result": 2.527},
      {"measurement": "Activity of mutant relative to wild-type Gaussia luciferase without the signal peptide", "setting": "[2]", "result": 0.520},
      {"measurement": "Activity of mutant relative to wild-type Gaussia luciferase without the signal peptide", "setting": "[3]", "result": 1.065}
    ]},
    {"molecule": "I10T C11S A13D A15I E16R A17S: Gaussia luciferase mutant (protein, SIGNAL (1)..(17), Gaussia luciferase mutant) MGVKVLFALTSIDVIRSKPTENNEDFNIVAVASNFATTDLDADRGKLPGKKLPLEVLKEMEANARKAGCTRGCLICLSHIKCTPKMKKFIPGRCHTYEGDKESAQGGIGEAIVDIPEIPGFKDLEPMEQFIAQVDLCVDCTTGCLKGLANVQCSDLLKKWLPQRCATFASKIQGQVDKIKGAGGD", "values": [
      {"measurement": "Activity of mutant relative to wild-type Gaussia luciferase without the signal peptide", "setting": "[1]", "result": 0.071},
      {"measurement": "Activity of mutant relative to wild-type Gaussia luciferase without the signal peptide", "setting": "[2]", "result": 0.086},
      {"measurement": "Activity of mutant relative to wild-type Gaussia luciferase without the signal peptide", "setting": "[3]", "result": 0.116}
    ]},
    {"molecule": "H79K P84L S103T A104G E110A: Gaussia luciferase mutant (protein, SIGNAL (1)..(17), Gaussia luciferase mutant) MGVKVLFALICIAVAEAKPTENNEDFNIVAVASNFATTDLDADRGKLPGKKLPLEVLKEMEANARKAGCTRGCLICLSKIKCTLKMKKFIPGRCHTYEGDKETGQGGIGAAIVDIPEIPGFKDLEPMEQFIAQVDLCVDCTTGCLKGLANVQCSDLLKKWLPQRCATFASKIQGQVDKIKGAGGD", "values": [
      {"measurement": "Activity of mutant relative to wild-type Gaussia luciferase without the signal peptide", "setting": "[1]", "result": 1.921},
      {"measurement": "Activity of mutant relative to wild-type Gaussia luciferase without the signal peptide", "setting": "[2]", "result": 13.108},
      {"measurement": "Activity of mutant relative to wild-type Gaussia luciferase without the signal peptide", "setting": "[3]", "result": 0.064}
    ]},
    {"molecule": "K66N E102A S103T A104G E110G D123N L124M V138D K180: Gaussia luciferase mutant (protein) MGVKVLFALICIAVAEAKPTENNEDFNIVAVASNFATTDLDADRGKLPGKKLPLEVLKEMEANARNAGCTRGCLICLSHIKCTPKMKKFIPGRCHTYEGDKATGQGGIGGAIVDIPEIPGFKNMEPMEQFIAQVDLCDDCTTGCLKGLANVQCSDLLKKWLPQRCATFASKIQGQVDKIKGAGGD", "values": [
      {"measurement": "Activity of mutant relative to wild-type Gaussia luciferase without the signal peptide", "setting": "[1]", "result": 0.945},
      {"measurement": "Activity of mutant relative to wild-type Gaussia luciferase without the signal peptide", "setting": "[2]", "result": 6.874},
      {"measurement": "Activity of mutant relative to wild-type Gaussia luciferase without the signal peptide", "setting": "[3]", "result": 1.880}
    ]},
    {"molecule": "K66N E102D S103T E110G L124M V138E: Gaussia luciferase mutant (protein, SIGNAL (1)..(17), Gaussia luciferase mutant) MGVKVLFALICIAVAEAKPTENNEDFNIVAVASNFATTDLDADRGKLPGKKLPLEVLKEMEANARNAGCTRGCLICLSHIKCTPKMKKFIPGRCHTYEGDKDTAQGGIGGAIVDIPEIPGFKDMEPMEQFIAQVDLCEDCTTGCLKGLANVQCSDLLKKWLPQRCATFASKIQGQVDKIKGAGGD", "values": [
      {"measurement": "Activity of mutant relative to wild-type Gaussia luciferase without the signal peptide", "setting": "[1]", "result": 0.134},
      {"measurement": "Activity of mutant relative to wild-type Gaussia luciferase without the signal peptide", "setting": "[2]", "result": 0.794},
      {"measurement": "Activity of mutant relative to wild-type Gaussia luciferase without the signal peptide", "setting": "[3]", "result": 0.471}
    ]},
    {"molecule": "K66N P84A E102K S103I E110G L124M V138E: Gaussia luciferase mutant (protein, SIGNAL (1)..(17), Gaussia luciferase mutant) MGVKVLFALICIAVAEAKPTENNEDFNIVAVASNFATTDLDADRGKLPGKKLPLEVLKEMEANARNAGCTRGCLICLSHIKCTAKMKKFIPGRCHTYEGDKKIAQGGIGGAIVDIPEIPGFKDMEPMEQFIAQVDLCEDCTTGCLKGLANVQCSDLLKKWLPQRCATFASKIQGQVDKIKGAGGD", "values": [
      {"measurement": "Activity of mutant relative to wild-type Gaussia luciferase without the signal peptide", "setting": "[1]", "result": 0.654},
      {"measurement": "Activity of mutant relative to wild-type Gaussia luciferase without the signal peptide", "setting": "[2]", "result": 0.896},
      {"measurement": "Activity of mutant relative to wild-type Gaussia luciferase without the signal peptide", "setting": "[3]", "result": 0.620}
    ]},
    {"molecule": "K66N H79K P84K E102K S103I E110P L124M: Gaussia luciferase mutant (protein, SIGNAL (1)..(17), Gaussia luciferase mutant) MGVKVLFALICIAVAEAKPTENNEDFNIVAVASNFATTDLDADRGKLPGKKLPLEVLKEMEANARNAGCTRGCLICLSKIKCTKKMKKFIPGRCHTYEGDKKIAQGGIGPAIVDIPEIPGFKDMEPMEQFIAQVDLCVDCTTGCLKGLANVQCSDLLKKWLPQRCATFASKIQGQVDKIKGAGGD", "values": [
      {"measurement": "Activity of mutant relative to wild-type Gaussia luciferase without the signal peptide", "setting": "[1]", "result": 0.755},
      {"measurement": "Activity of mutant relative to wild-type Gaussia luciferase without the signal peptide", "setting": "[2]", "result": 1.728},
      {"measurement": "Activity of mutant relative to wild-type Gaussia luciferase without the signal peptide", "setting": "[3]", "result": 1.118}
    ]},
    {"molecule": "H79K P84L V138D: Gaussia luciferase mutant (protein, SIGNAL (1)..(17), Gaussia luciferase mutant) MGVKVLFALICIAVAEAKPTENNEDFNIVAVASNFATTDLDADRGKLPGKKLPLEVLKEMEANARKAGCTRGCLICLSKIKCTLKMKKFIPGRCHTYEGDKESAQGGIGEAIVDIPEIPGFKDLEPMEQFIAQVDLCDDCTTGCLKGLANVQCSDLLKKWLPQRCATFASKIQGQVDKIKGAGGD", "values": [
      {"measurement": "Activity of mutant relative to wild-type Gaussia luciferase without the signal peptide", "setting": "[1]", "result": 0.094},
      {"measurement": "Activity of mutant relative to wild-type Gaussia luciferase without the signal peptide", "setting": "[2]", "result": 0.936},
      {"measurement": "Activity of mutant relative to wild-type Gaussia luciferase without the signal peptide", "setting": "[3]", "result": 0.068}
    ]},
    {"molecule": "K66N P84L E102A S103I A104G E110P D123N L124M V138D: Gaussia luciferase mutant (protein, SIGNAL (1)..(17), Gaussia luciferase mutant) MGVKVLFALICIAVAEAKPTENNEDFNIVAVASNFATTDLDADRGKLPGKKLPLEVLKEMEANARNAGCTRGCLICLSHIKCTLKMKKFIPGRCHTYEGDKAIGQGGIGPAIVDIPEIPGFKNMEPMEQFIAQVDLCDDCTTGCLKGLANVQCSDLLKKWLPQRCATFASKIQGQVDKIKGAGGD", "values": [
      {"measurement": "Activity of mutant relative to wild-type Gaussia luciferase without the signal peptide", "setting": "[1]", "result": 0.513},
      {"measurement": "Activity of mutant relative to wild-type Gaussia luciferase without the signal peptide", "setting": "[2]", "result": 5.207},
      {"measurement": "Activity of mutant relative to wild-type Gaussia luciferase without the signal peptide", "setting": "[3]", "result": 0.041}
    ]},
    {"molecule": "K66N H79K E102D E110P L124M: Gaussia luciferase mutant (protein, SIGNAL (1)..(17), Gaussia luciferase mutant) MGVKVLFALICIAVAEAKPTENNEDFNIVAVASNFATTDLDADRGKLPGKKLPLEVLKEMEANARNAGCTRGCLICLSKIKCTPKMKKFIPGRCHTYEGDKDSAQGGIGPAIVDIPEIPGFKDMEPMEQFIAQVDLCVDCTTGCLKGLANVQCSDLLKKWLPQRCATFASKIQGQVDKIKGAGGD", "values": [
      {"measurement": "Activity of mutant relative to wild-type Gaussia luciferase without the signal peptide", "setting": "[1]", "result": 1.554},
      {"measurement": "Activity of mutant relative to wild-type Gaussia luciferase without the signal peptide", "setting": "[2]", "result": 0.404},
      {"measurement": "Activity of mutant relative to wild-type Gaussia luciferase without the signal peptide", "setting": "[3]", "result": 0.751}
    ]},
    {"molecule": "K66N H79K P84A E102E S103I D123N L124M V138E K159N I179*: Gaussia luciferase mutant (protein, SIGNAL (1)..(17), Gaussia luciferase mutant) MGVKVLFALICIAVAEAKPTENNEDFNIVAVASNFATTDLDADRGKLPGKKLPLEVLKEMEANARNAGCTRGCLICLSKIKCTAKMKKFIPGRCHTYEGDKEIAQGGIGEAIVDIPEIPGFKNMEPMEQFIAQVDLCEDCTTGCLKGLANVQCSDLLKNWLPQRCATFASKIQGQVDKKGAGGD", "values": [
      {"measurement": "Activity of mutant relative to wild-type Gaussia luciferase without the signal peptide", "setting": "[1]", "result": 0.000},
      {"measurement": "Activity of mutant relative to wild-type Gaussia luciferase without the signal peptide", "setting": "[2]", "result": 0.009},
      {"measurement": "Activity of mutant relative to wild-type Gaussia luciferase without the signal peptide", "setting": "[3]", "result": 0.001}
    ]}
  ]
}
